Publication PMC7367873, “Dissecting the sequence determinants for dephosphorylation by the catalytic subunits of phosphatases PP1 and PP2A” (Nature Communications, 2020)

B1: KTN1 (protein, UniProt Q86UP2 1-1357, looked up)
Kinectin: MEFYESAYFIVLIPSIVITVIFLFFWLFMKETLYDEVLAKQKREQKLIPTKTDKKKAEKKKNKKKEIQNGNLHESDSESVPRDFKLSDALAVEDDQVAPVPLNVVETSSSVRERKKKEKKQKPVLEEQVIKESDASKIPGKKVEPVPVTKQPTPPSEAAASKKKPGQKKSKNGSDDQDKKVETLMVPSKRQEALPLHQETKQESGSGKKKASSKKQKTENVFVDEPLIHATTYIPLMDNADSSPVVDKREVIDLLKPDQVEGIQKSGTKKLKTETDKENAEVKFKDFLLSLKTMMFSEDEALCVVDLLKEKSGVIQDALKKSSKGELTTLIHQLQEKDKLLAAVKEDAAATKDRCKQLTQEMMTEKERSNVVITRMKDRIGTLEKEHNVFQNKIHVSYQETQQMQMKFQQVREQMEAEIAHLKQENGILRDAVSNTTNQLESKQSAELNKLRQDYARLVNELTEKTGKLQQEEVQKKNAEQAATQLKVQLQEAERRWEEVQSYIRKRTAEHEAAQQDLQSKFVAKENEVQSLHSKLTDTLVSKQQLEQRLMQLMESEQKRVNKEESLQMQVQDILEQNEALKAQIQQFHSQIAAQTSASVLAEELHKVIAEKDKQIKQTEDSLASERDRLTSKEEELKDIQNMNFLLKAEVQKLQALANEQAAAAHELEKMQQSVYVKDDKIRLLEEQLQHEISNKMEEFKILNDQNKALKSEVQKLQTLVSEQPNKDVVEQMEKCIQEKDEKLKTVEELLETGLIQVATKEEELNAIRTENSSLTKEVQDLKAKQNDQVSFASLVEELKKVIHEKDGKIKSVEELLEAELLKVANKEKTVQDLKQEIKALKEEIGNVQLEKAQQLSITSKVQELQNLLKGKEEQMNTMKAVLEEKEKDLANTGKWLQDLQEENESLKAHVQEVAQHNLKEASSASQFEELEIVLKEKENELKRLEAMLKERESDLSSKTQLLQDVQDENKLFKSQIEQLKQQNYQQASSFPPHEELLKVISEREKEISGLWNELDSLKDAVEHQRKKNNDLREKNWEAMEALASTEKMLQDKVNKTSKERQQQVEAVELEAKEVLKKLFPKVSVPSNLSYGEWLHGFEKKAKECMAGTSGSEEVKVLEHKLKEADEMHTLLQLECEKYKSVLAETEGILQKLQRSVEQEENKWKVKVDESHKTIKQMQSSFTSSEQELERLRSENKDIENLRREREHLEMELEKAEMERSTYVTEVRELKDLLTELQKKLDDSYSEAVRQNEELNLLKAQLNETLTKLRTEQNERQKVAGDLHKAQQSLELIQSKIVKAAGDTTVIENSDVSPETESSEKETMSVSLNQTVTQLQQLLQAVNQQLTKEKEHYQVLE
B2: CCDC18 (protein, UniProt Q5T9S5 1-1454, looked up)
Coiled-coil domain-containing …: MESSSSDYYNKDNEEESLLANVASLRHELKITEWSLQSLGEELSSVSPSENSDYAPNPSRSEKLILDVQPSHPGLLNYSPYENVCKISGSSTDFQKKPRDKMFSSSAPVDQEIKSLREKLNKLRQQNACLVTQNHSLMTKFESIHFELTQSRAKVSMLESAQQQAASVPILEEQIINLEAEVSAQDKVLREAENKLEQSQKMVIEKEQSLQESKEECIKLKVDLLEQTKQGKRAERQRNEALYNAEELSKAFQQYKKKVAEKLEKVQAEEEILERNLTNCEKENKRLQERCGLYKSELEILKEKLRQLKEENNNGKEKLRIMAVKNSEVMAQLTESRQSILKLESELENKDEILRDKFSLMNENRELKVRVAAQNERLDLCQQEIESSRVELRSLEKIISQLPLKRELFGFKSYLSKYQMSSFSNKEDRCIGCCEANKLVISELRIKLAIKEAEIQKLHANLTANQLSQSLITCNDSQESSKLSSLETEPVKLGGHQVESVKDQNQHTMNKQYEKERQRLVTGIEELRTKLIQIEAENSDLKVNMAHRTSQFQLIQEELLEKASNSSKLESEMTKKCSQLLTLEKQLEEKIVAYSSIAAKNAELEQELMEKNEKIRSLETNINTEHEKICLAFEKAKKIHLEQHKEMEKQIERLEAQLEKKDQQFKEQEKTMSMLQQDIICKQHHLESLDRLLTESKGEMKKENMKKDEALKALQNQVSEETIKVRQLDSALEICKEELVLHLNQLEGNKEKFEKQLKKKSEEVYCLQKELKIKNHSLQETSEQNVILQHTLQQQQQMLQQETIRNGELEDTQTKLEKQVSKLEQELQKQRESSAEKLRKMEEKCESAAHEADLKRQKVIELTGTARQVKIEMDQYKEELSKMEKEIMHLKRDGENKAMHLSQLDMILDQTKTELEKKTNAVKELEKLQHSTETELTEALQKREVLETELQNAHGELKSTLRQLQELRDVLQKAQLSLEEKYTTIKDLTAELRECKMEIEDKKQELLEMDQALKERNWELKQRAAQVTHLDMTIREHRGEMEQKIIKLEGTLEKSELELKECNKQIESLNDKLQNAKEQLREKEFIMLQNEQEISQLKKEIERTQQRMKEMESVMKEQEQYIATQYKEAIDLGQELRLTREQVQNSHTELAEARHQQVQAQREIERLSSELEDMKQLSKEKDAHGNHLAEELGASKVREAHLEARMQAEIKKLSAEVESLKEAYHMEMISHQENHAKWKISADSQKSSVQQLNEQLEKAKLELEEAQDTVSNLHQQVQDRNEVIEAANEALLTKESELTRLQAKISGHEKAEDIKFLPAPFTSPTEIMPDVQDPKFAKCFHTSFSKCTKLRRSISASDLTFKIHGDEDLSEELLQDLKKMQLEQPSTLEESHKNLTYTQPDSFKPLTYNLEADSSENNDFNTLSGMLRYINKEVRLLKKSSMQTGAGLNQGENV
B3: DDX28 (protein, UniProt Q9NUL7 1-540, looked up)
Probable ATP-dependent RNA …: MALTRPVRLFSLVTRLLLAPRRGLTVRSPDEPLPVVRIPVALQRQLEQRQSRRRNLPRPVLVRPGPLLVSARRPELNQPARLTLGRWERAPLASQGWKSRRARRDHFSIERAQQEAPAVRKLSSKGSFADLGLEPRVLHALQEAAPEVVQPTTVQSSTIPSLLRGRHVVCAAETGSGKTLSYLLPLLQRLLGQPSLDSLPIPAPRGLVLVPSRELAQQVRAVAQPLGRSLGLLVRDLEGGHGMRRIRLQLSRQPSADVLVATPGALWKALKSRLISLEQLSFLVLDEADTLLDESFLELVDYILEKSHIAEGPADLEDPFNPKAQLVLVGATFPEGVGQLLNKVASPDAVTTITSSKLHCIMPHVKQTFLRLKGADKVAELVHILKHRDRAERTGPSGTVLVFCNSSSTVNWLGYILDDHKIQHLRLQGQMPALMRVGIFQSFQKSSRDILLCTDIASRGLDSTGVELVVNYDFPPTLQDYIHRAGRVGRVGSEVPGTVISFVTHPWDVSLVQKIELAARRRRSLPGLASSVKEPLPQAT
B4: LBR (protein, UniProt Q14739 1-615, looked up)
Delta(14)-sterol reductase LBR: MPSRKFADGEVVRGRWPGSSLYYEVEILSHDSTSQLYTVKYKDGTELELKENDIKPLTSFRQRKGGSTSSSPSRRRGSRSRSRSRSPGRPPKSARRSASASHQADIKEARREVEVKLTPLILKPFGNSISRYNGEPEHIERNDAPHKNTQEKFSLSQESSYIATQYSLRPRREEVKLKEIDSKEEKYVAKELAVRTFEVTPIRAKDLEFGGVPGVFLIMFGLPVFLFLLLLMCKQKDPSLLNFPPPLPALYELWETRVFGVYLLWFLIQVLFYLLPIGKVVEGTPLIDGRRLKYRLNGFYAFILTSAVIGTSLFQGVEFHYVYSHFLQFALAATVFCVVLSVYLYMRSLKAPRNDLSPASSGNAVYDFFIGRELNPRIGTFDLKYFCELRPGLIGWVVINLVMLLAEMKIQDRAVPSLAMILVNSFQLLYVVDALWNEEALLTTMDIIHDGFGFMLAFGDLVWVPFIYSFQAFYLVSHPNEVSWPMASLIIVLKLCGYVIFRGANSQKNAFRKNPSDPKLAHLKTIHTSTGKNLLVSGWWGFVRHPNYLGDLIMALAWSLPCGFNHILPYFYIIYFTMLLVHREARDEYHCKKKYGVAWEKYCQRVPYRIFPYIY
B5: MAGED2 (protein, UniProt Q9UNF1 2-606, looked up)
Melanoma-associated antigen D2: SDTSESGAGLTRFQAEASEKDSSSMMQTLLTVTQNVEVPETPKASKALEVSEDVKVSKASGVSKATEVSKTPEAREAPATQASSTTQLTDTQVLAAENKSLAADTKKQNADPQAVTMPATETKKVSHVADTKVNTKAQETEAAPSQAPADEPEPESAAAQSQENQDTRPKVKAKKARKVKHLDGEEDGSSDQSQASGTTGGRRVSKALMASMARRASRGPIAFWARRASRTRLAAWARRALLSLRSPKARRGKARRRAAKLQSSQEPEAPPPRDVALLQGRANDLVKYLLAKDQTKIPIKRSDMLKDIIKEYTDVYPEIIERAGYSLEKVFGIQLKEIDKNDHLYILLSTLEPTDAGILGTTKDSPKLGLLMVLLSIIFMNGNRSSEAVIWEVLRKLGLRPGIHHSLFGDVKKLITDEFVKQKYLDYARVPNSNPPEYEFFWGLRSYYETSKMKVLKFACKVQKKDPKEWAAQYREAMEADLKAAAEAAAEAKARAEIRARMGIGLGSENAAGPCNWDEADIGPWAKARIQAGAEAKAKAQESGSASTGASTSTNNSASASASTSGGFSAGASLTATLTFGLFAGLGGAGASTSGSSGACGFSYK
B6: CLPTM1L (protein, UniProt Q96KA5 1-538, looked up)
Lipid scramblase CLPTM1L: MWSGRSSFTSLVVGVFVVYVVHTCWVMYGIVYTRPCSGDANCIQPYLARRPKLQLSVYTTTRSHLGAENNIDLVLNVEDFDVESKFERTVNVSVPKKTRNNGTLYAYIFLHHAGVLPWHDGKQVHLVSPLTTYMVPKPEEINLLTGESDTQQIEAEKKPTSALDEPVSHWRPRLALNVMADNFVFDGSSLPADVHRYMKMIQLGKTVHYLPILFIDQLSNRVKDLMVINRSTTELPLTVSYDKVSLGRLRFWIHMQDAVYSLQQFGFSEKDADEVKGIFVDTNLYFLALTFFVAAFHLLFDFLAFKNDISFWKKKKSMIGMSTKAVLWRCFSTVVIFLFLLDEQTSLLVLVPAGVGAAIELWKVKKALKMTIFWRGLMPEFQFGTYSESERKTEEYDTQAMKYLSYLLYPLCVGGAVYSLLNIKYKSWYSWLINSFVNGVYAFGFLFMLPQLFVNYKLKSVAHLPWKAFTYKAFNTFIDDVFAFIITMPTSHRLACFRDDVVFLVYLYQRWLYPVDKRRVNEFGESYEEKATRAPHTD

System: GFP-14-3-3β
Assay: GFP-14-3-3β co-IP with LC-MS/MS, untreated GFP-14-3-3β versus GFP control (14-3-3 interactome)
Assay type: binding, human
Details: log2 difference; pairwise comparison untreated vs GFP, label-free quantification, 3 replicates each

For B1, the “Difference (log2), untreated vs GFP” value was -1.401.

Same assay, conditions: pairwise comparison untreated vs GFP

Going from B2 to B3, the “Difference (log2), untreated vs GFP” value falls from 0.2347 log2 to 0.1408 log2.

Compared with B4, B5 is lower in “Difference (log2), untreated vs GFP” value: 2.137 log2 for the first, 0.4555 log2 for the second.

For B6, the “Difference (log2), untreated vs GFP” value was 0.3996 log2.

System: GFP-14-3-3β and its binding proteins
Assay: GFP-14-3-3β co-IP with LC-MS/MS label-free quantification, untreated versus PP1c-treated
Design: species or system human
Details: log2 difference; pairwise comparison PP1 vs untreated, label-free quantification, 3 replicates each

For B1, the “Difference (log2), PP1 vs untreated” value was 2.052.

Same assay, conditions: pairwise comparison PP1 vs untreated

Compared with B2, B3 is lower in “Difference (log2), PP1 vs untreated” value: 0.1672 log2 for the first, 0.1504 log2 for the second.

First: B4
Second: B5
The “Difference (log2), PP1 vs untreated” value of the first is higher: 0.1636 log2 for the first, 0.1347 log2 for the second.

For B6, the “Difference (log2), PP1 vs untreated” value was 0.154 log2.
